Test system: coagulation in recalcified plasma
Test: One stage clotting (coagulation) assay of specific functional activity of full-length TF mutants in CHO cell lysates
Assay type: biochemical
Details: full-length Ala mutant expressed in CHO cells, cell lysate, coagulant activity normalized to antigen, relative to wild-type TF
Protocol: The full-length TF mutants prepared above were analyzed for function by coagulation assay. […] Coagulation factor deficient plasmas were purchased from George King Bio-medical. The chromogenic substrate, Spectrozyme FXa, was from American Diagnostica Inc. (Greenwich, Conn.).
An alternative approach was to use a polyvalent antibody purified by affinity for capturing TF followed by detection with the TF8-5G9 monoclonal antibody described above.
Initiation of coagulation by wild-type and mutant TF in recalcified plasma was determined after lysis of cell pellets from 2×10^6 cells/ml for each expressed full-length mutant with 15 mM octyl-glucopyranoside in HBS for 15 minutes at 37 C. followed by a 3-fold dilution.
All data represented are based on at least three independent determinations performed in duplicate.

Molecule	loss of function (reduction in specific functional activity as % of wild-type activity)
Arg-131: human tissue factor mutant, Arg-131 exchanged for alanine (protein, UniProt P13726 33-295, looked up, variant R131A) Tissue factor: SGTTNTVAAYNLTWKSTNFKTILEWEPKPVNQVYTVQISTKSGDWKSKCFYTTDTECDLTDEIVKDVKQTYLARVFSYPAGNVESTGSAGEPLYENSPEFTPYLETNLGQPTIQSFEQVGTKVNVTVEDEATLVRRNNTFLSLRDVFGKDLIYTLYYWKSSSSGKKTAKTNTNEFLIDVDKGENYCFSVQAVIPSRTVNRKSTDSPVECMGQEKGEFREIFYIIGAVVFVVIILVIILAISLHKCRKAGVGQSWKENSPLNVS	30-50%
Arg-136: human tissue factor mutant, Arg-136 exchanged for alanine (protein, UniProt P13726 33-295, looked up, variant R136A) Tissue factor: SGTTNTVAAYNLTWKSTNFKTILEWEPKPVNQVYTVQISTKSGDWKSKCFYTTDTECDLTDEIVKDVKQTYLARVFSYPAGNVESTGSAGEPLYENSPEFTPYLETNLGQPTIQSFEQVGTKVNVTVEDERTLVRANNTFLSLRDVFGKDLIYTLYYWKSSSSGKKTAKTNTNEFLIDVDKGENYCFSVQAVIPSRTVNRKSTDSPVECMGQEKGEFREIFYIIGAVVFVVIILVIILAISLHKCRKAGVGQSWKENSPLNVS	30-50%
Thr-139/Ser-142: human tissue factor mutant, Thr-139 and Ser-142 exchanged for alanine (protein, UniProt P13726 33-295, looked up, variant T139A S142A) Tissue factor: SGTTNTVAAYNLTWKSTNFKTILEWEPKPVNQVYTVQISTKSGDWKSKCFYTTDTECDLTDEIVKDVKQTYLARVFSYPAGNVESTGSAGEPLYENSPEFTPYLETNLGQPTIQSFEQVGTKVNVTVEDERTLVRRNNAFLALRDVFGKDLIYTLYYWKSSSSGKKTAKTNTNEFLIDVDKGENYCFSVQAVIPSRTVNRKSTDSPVECMGQEKGEFREIFYIIGAVVFVVIILVIILAISLHKCRKAGVGQSWKENSPLNVS	30-50%

Test system: recombinant VIIa
Test: Linked chromogenic assay with purified VIIa and factor X, apparent dissociation constant of the TF-VIIa interaction
Assay type: biochemical
Details: full-length Ala mutants, linked chromogenic assay
Protocol: The lysate was prepared by treating cell pellets with 15 mM octyl-glucopyranoside for 15 minutes at 37 C. followed by a 3-fold dilution. […] Formed TF-VIIa complexes were quantified with substrate factor X added at 100 nM for a fixed time. Samples were then removed from the reaction and quenched in 100 mM EDTA in TBS (20 mM Tris-HCl 140 mM NaCl, pH 7.4). […] The rate of Spectrozyme hydrolysis, measured as the increase in absorbance (mOD/min), was determined at ambient temperature in a kinetic plate reader (Molecular Devices, Mountain View, Calif.) followed by quenching and monitoring of product factor Xa formation using the Spectrozyme FXa.
Enzfitter (Elsevier Biosoft) programs were employed to calculate the KDapp from the experimentally determined bound VIIa, and free VIIa which was obtained by subtracting bound VIIa from the initial VIIa concentration.

Molecule	change in KDapp for the TF-VIIa interaction compared to wild-type TF (ratio KD mutant/KD wild-type) [fold]
Asp-58 to Ala: human tissue factor mutant, Asp-58 to Ala exchange (EN-strand) (protein, UniProt P13726 33-295, looked up, variant D58A) Tissue factor: SGTTNTVAAYNLTWKSTNFKTILEWEPKPVNQVYTVQISTKSGDWKSKCFYTTDTECALTDEIVKDVKQTYLARVFSYPAGNVESTGSAGEPLYENSPEFTPYLETNLGQPTIQSFEQVGTKVNVTVEDERTLVRRNNTFLSLRDVFGKDLIYTLYYWKSSSSGKKTAKTNTNEFLIDVDKGENYCFSVQAVIPSRTVNRKSTDSPVECMGQEKGEFREIFYIIGAVVFVVIILVIILAISLHKCRKAGVGQSWKENSPLNVS	41
Val-64/Tyr-71 to Ala: human tissue factor Val-64/Tyr-71 to Ala double mutant (protein, UniProt P13726 33-295, looked up, variant V64A Y71A) Tissue factor: SGTTNTVAAYNLTWKSTNFKTILEWEPKPVNQVYTVQISTKSGDWKSKCFYTTDTECDLTDEIAKDVKQTALARVFSYPAGNVESTGSAGEPLYENSPEFTPYLETNLGQPTIQSFEQVGTKVNVTVEDERTLVRRNNTFLSLRDVFGKDLIYTLYYWKSSSSGKKTAKTNTNEFLIDVDKGENYCFSVQAVIPSRTVNRKSTDSPVECMGQEKGEFREIFYIIGAVVFVVIILVIILAISLHKCRKAGVGQSWKENSPLNVS	2.1
Arg-196: human tissue factor mutant, Arg-196 replacement by alanine in the Fc-Gc-loop (protein, UniProt P13726 33-295, looked up, variant R196A) Tissue factor: SGTTNTVAAYNLTWKSTNFKTILEWEPKPVNQVYTVQISTKSGDWKSKCFYTTDTECDLTDEIVKDVKQTYLARVFSYPAGNVESTGSAGEPLYENSPEFTPYLETNLGQPTIQSFEQVGTKVNVTVEDERTLVRRNNTFLSLRDVFGKDLIYTLYYWKSSSSGKKTAKTNTNEFLIDVDKGENYCFSVQAVIPSATVNRKSTDSPVECMGQEKGEFREIFYIIGAVVFVVIILVIILAISLHKCRKAGVGQSWKENSPLNVS	3.5

Source: patent US5726147A, “Human mutant tissue factor compositions useful as tissue factor antagonists” (priority 1995, dated 1998)
